Reference: the supplement of paper PMC10126150
± gives the standard deviation of the averaged measurements.

System: ATP
Assay: switch fluorescence ratio, 500 uM ATP over buffer (Cy3 cluster intensity, sum of 5 cycles each) (fold (ratio)); higher = stronger signal-on switching upon ATP binding; sequences stand for … in TCGTCGGCAGCGTCAGATGTGTATAAGAGACAGTTTTTTTTTTTTTTTTTTTTTTTTT…TC
Conditions: aptamer strand: ATP DNA aptamer (quencher-CACCTGGGGGAGTATTGCGGAGGAAGG + anchor), 100 nM annealed; ATP concentration: 500 uM
Method in brief: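 After annealing to 100 nM quencher-labelled ATP aptamer, Cy3-labelled switching-strand clusters on a modified Illumina MiSeq flow-cell were imaged in selection buffer. A second image followed after 15 min with 500 uM ATP at 22 °C, and five such buffer/ATP cycles were done, each separated by NaOH stripping and re-annealing. The fluorescence ratio, averaged per switch-domain sequence, is summed target-cycle over summed buffer-cycle Cy3 intensity per cluster, with clusters outside 100-1000 RFU excluded.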
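Also: ATP exposure 15 min at 22 °C before imaging.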

Sequence	switch fluorescence ratio
TAGCTGTAAT	1.02 ± 0.046
TAGCTGTCAC	1.04 ± 0.04
TAGCTGTTGT	0.993 ± 0.027
TAGCTTTTTT	1.002 ± 0.0045
TAGGAAAAAG	0.975 ± 0.013
TAGGAATGGG	0.989 ± 0.034
TAGGACGCGG	1.04 ± 0.052
TAGGACTCAT	1.009 ± 0.0082
TAGGAGCAGG	1.09 ± 0.021
TAGGAGGCTA	0.976 ± 0.035
TAGGAGGTAT	1.01 ± 0.048
TAGGAGGTTT	1.067 ± 0.0013
TAGGAGTAAC	0.9812 ± 0.0037
TAGGAGTTAT	1.01 ± 0.04
TAGGATGCAG	0.957 ± 0.042
TAGGATGGCT	0.959 ± 0.072
TAGGATGGGT	0.99 ± 0.017
TAGGATGGTT	0.984 ± 0.013
TAGGATTCTC	0.979 ± 0.023
TAGGATTGGC	1.04 ± 0.018
TAGGCCTGGG	1 ± 0.0033
TAGGCGAGTT	0.98 ± 0.0021
TAGGCGGAGC	1.033 ± 0.0063
TAGGCGGATA	1.008 ± 0.0023
TAGGCGGGTG	1.03 ± 0.023

Sequence	switch fluorescence ratio
TAGGCGTACG	1.08 ± 0.006
TAGGCTAGGT	1.017 ± 0.0047
TAGGCTGAGG	1.002 ± 0.0063
TAGGCTGTAC	2.84 ± 1.6
TAGGCTTAGC	0.9671 ± 0.0069
TAGGCTTTTT	0.9925 ± 0.0075
TAGGGAAAAC	1.05 ± 0.12
TAGGGAAATT	1.04 ± 0.021
TAGGGACGTT	0.988 ± 0.013
TAGGGAGGGA	0.9801 ± 0.0069
TAGGGAGTCA	0.971 ± 0.019
TAGGGATAGT	0.9986 ± 0.0052
TAGGGATATA	0.985 ± 0.035
TAGGGATCCC	1.04 ± 0.028
TAGGGCAAGT	1.01 ± 0.016
TAGGGCACGG	1.02 ± 0.035
TAGGGCATTT	1.03 ± 0.056
TAGGGCCACG	1.01 ± 0.018
TAGGGCGGGG	0.988 ± 0.025
TAGGGCTTAA	0.993 ± 0.042
TAGGGGAAAT	0.994 ± 0.024
TAGGGGAACC	0.9693 ± 0.0092
TAGGGGACGT	0.992 ± 0.063
TAGGGGAGGC	0.984 ± 0.016
TAGGGGATAG	1.02 ± 0.032

Sequence	switch fluorescence ratio
TAGGGGCGGC	1.01 ± 0.056
TAGGGGCGGG	0.971 ± 0.025
TAGGGGGAAG	0.9792 ± 0.0033
TAGGGGGACG	1.04 ± 0.068
TAGGGGGATT	1.014 ± 0.0089
TAGGGGGCGT	0.987 ± 0.0032
TAGGGGGGAC	1.19 ± 0.34
TAGGGGGTCT	1.21 ± 0.47
TAGGGGTACT	1.41 ± 0.61
TAGGGGTATG	1.06 ± 0.096
TAGGGGTCTC	1.07 ± 0.038
TAGGGGTGGG	1.0453 ± 0.00085
TAGGGGTGTA	1 ± 0.04
TAGGGGTTGT	1.02 ± 0.028
TAGGGTAAGT	0.9905 ± 0.0089
TAGGGTATAT	0.986 ± 0.015
TAGGGTCGGT	1 ± 0.041
TAGGGTGAGT	1.02 ± 0.035
TAGGGTGTTG	1.01 ± 0.021
TAGGGTTTGT	0.989 ± 0.031
TAGGTACCAG	0.984 ± 0.025
TAGGTAGCTT	1.02 ± 0.021
TAGGTAGGGA	0.993 ± 0.018
TAGGTATGTG	1.03 ± 0.049
TAGGTCAGAA	0.989 ± 0.025

Sequence	switch fluorescence ratio
TAGGTCATTG	0.995 ± 0.025
TAGGTCGGTG	0.993 ± 0.011
TAGGTCTAGG	1 ± 0.023
TAGGTGCGGT	0.989 ± 0.015
TAGGTGCTTT	1.079 ± 0.0059
TAGGTGGCGG	0.9906 ± 0.0071
TAGGTGGTTT	0.989 ± 0.026
TAGGTGTAGG	1.01 ± 0.028
TAGGTGTGTG	0.984 ± 0.024
TAGGTTAAAA	0.9786 ± 0.0041
TAGGTTAAGG	1 ± 0.034
TAGGTTACCC	1.04 ± 0.046
TAGGTTATTA	0.9988 ± 0.0097
TAGGTTGCTT	1.02 ± 0.021
TAGGTTGGGT	0.992 ± 0.0089
TAGTAAAAAC	0.9938 ± 0.0061
TAGTAACATA	1.006 ± 0.0036
TAGTAATATT	1.11 ± 0.12
TAGTAATGTT	0.982 ± 0.025
TAGTAGACTG	1.01 ± 0.05
TAGTAGAGT	0.9637 ± 0.0076
TAGTAGATTC	1.005 ± 0.0054
TAGTAGCTGT	1.04 ± 0.089
TAGTAGGGTT	0.986 ± 0.021
TAGTAGGTAC	1.04 ± 0.025

Sequence	switch fluorescence ratio
TAGTAGTCGG	0.963 ± 0.036
TAGTAGTTAT	0.9858 ± 0.0052
TAGTATTCTG	0.986 ± 0.021
TAGTATTTGC	1.14 ± 0.13
TAGTCAGTCG	1.08 ± 0.11
TAGTCATTTG	0.962 ± 0.0097
TAGTCCGTAA	2.06 ± 0.035
TAGTCGGGTT	0.9613 ± 0.0059
TAGTCGTTTC	1.02 ± 0.035
TAGTCTGGT	0.999 ± 0.016
TAGTCTTTTT	1.03 ± 0.027
TAGTGACACG	1.03 ± 0.045
TAGTGAGGGA	0.992 ± 0.013
TAGTGCCGGT	0.993 ± 0.016
TAGTGCGTCG	0.942 ± 0.063
TAGTGCTTGG	0.9827 ± 0.0087
TAGTGGGTTT	1.01 ± 0.021
TAGTGGTTAG	0.991 ± 0.025
TAGTGTAGGT	1.03 ± 0.02
TAGTGTATTA	1.01 ± 0.018
TAGTGTCGGA	0.9914 ± 0.0035
TAGTTAATAT	1 ± 0.019
TAGTTAGTTT	1.02 ± 0.029
TAGTTCATGG	0.991 ± 0.019
TAGTTCGCTT	1.003 ± 0.0067

Sequence	switch fluorescence ratio
TAGTTGAATT	0.998 ± 0.014
TAGTTGACCG	1.12 ± 0.11
TAGTTGACTG	1.04 ± 0.072
TAGTTGATTC	1.01 ± 0.067
TAGTTGCGGC	1.01 ± 0.041
TAGTTGGGGG	1 ± 0.028
TAGTTGGTAC	0.9925 ± 0.0083
TAGTTGGTCG	1.02 ± 0.049
TAGTTGGTTG	0.974 ± 0.027
TAGTTGTTGC	0.977 ± 0.021
TAGTTTATTT	1 ± 0.015
TAGTTTCCCA	0.971 ± 0.024
TAGTTTCGAT	0.977 ± 0.019
TAGTTTGATG	0.986 ± 0.017
TAGTTTTATG	0.959 ± 0.015
TAGTTTTTTA	1.02 ± 0.015
TAGTTTTTTT	0.986 ± 0.022
TATAAAAAAA	1.02 ± 0.051
TATAAAACCC	1.1 ± 0.045
TATAAAAGGA	1 ± 0.019
TATAAAGGG	0.956 ± 0.022
TATAAAGGTG	1.11 ± 0.14
TATAACACTT	1.05 ± 0.024
TATAACGGAG	1.01 ± 0.014
TATAACGTTA	0.993 ± 0.015

Sequence	switch fluorescence ratio
TATAAGAGAA	0.972 ± 0.031
TATAAGATTA	1.015 ± 0.0027
TATAAGCTAG	1.03 ± 0.017
TATAAGGAGG	0.9935 ± 0.0033
TATAATACGG	1.02 ± 0.02
TATAATAGAA	0.983 ± 0.027
TATAATCCAG	0.984 ± 0.024
TATAATCGTG	0.988 ± 0.021
TATAATTGCG	0.977 ± 0.036
TATAATTTCG	1.003 ± 0.0024
TATACAAATT	0.989 ± 0.043
TATACAGCGA	1.0822 ± 0.00025
TATACATTCA	1.07 ± 0.019
TATACATTGG	0.98862 ± 5.5e-05
TATACCGGTA	1.022 ± 0.0067
TATACGAAAT	1.49 ± 0.58
TATACGATCT	0.999 ± 0.03
TATACGGCAC	2.04 ± 0.14
TATACGGCAT	1.119 ± 0.0049
TATACGGTTT	1.03 ± 0.083
TATACTCAGG	1.05 ± 0.029
TATAGACTTT	1.02 ± 0.019
TATAGATGAC	0.989 ± 0.017
TATAGATGTG	1.013 ± 0.0024
TATAGATTTT	1.003 ± 0.0078

Sequence	switch fluorescence ratio
TATAGCAGTT	1.01 ± 0.013
TATAGCTTTT	0.9869 ± 0.0031
TATAGGCTCA	0.976 ± 0.033
TATAGGCTTT	0.97 ± 0.024
TATAGGGCC	1 ± 0.017
TATAGGTATG	1.01 ± 0.012
TATAGGTCGA	1.03 ± 0.011
TATAGGTGAG	1.01 ± 0.03
TATAGTATTT	0.984 ± 0.015
TATAGTGCTC	0.986 ± 0.054
TATAGTGTAA	1.01 ± 0.048
TATAGTTGTG	0.965 ± 0.025
TATATAAGAA	1.01 ± 0.033
TATATATCAA	1.003 ± 0.005
TATATCGGAC	1 ± 0.014
TATATCTCCG	1.12 ± 0.015
TATATGAGTT	0.963 ± 0.0099
TATATGGCAT	1.05 ± 0.085
TATATGGCGG	0.9719 ± 0.0074
TATATGGGGT	1 ± 0.042
TATATGTGAT	0.987 ± 0.017
TATATGTGGG	0.9705 ± 0.0077
TATATTTCTA	0.999 ± 0.035
TATATTTTCA	1.01 ± 0.068
TATCAACTTG	1.02 ± 0.037
